Columns and labels:
[1] = molecular target: T1, SARS-CoV-2 spike on whole virus (SARS-CoV-2/human/AUS/VIC01/2020, Victoria) (SARS-CoV-2, UniProt P0DTC2 14-1273)
[2] = molecular target: T1, SARS-CoV-2 spike on whole virus …; test: cell-based or functional assay

| Binder | EC50 (read off the curve) [1] [nM] | Neutralisation IC50 (FRNT) [2] [µg/mL] |
| --- | --- | --- |
| mAb 316 (antibody, V domains shown) VH: not shown VL: QAVLTQPPSASGSPGQSVTISCTGTSSDVGGYNYVSWYQQHPGKAPKLMIYEVSKRPSGVPDRFSGSKSGNTASLTVSGLQAEDEADYYCSSYAGSNHWVFGGGTKLTVL | ~0.1 | 0.01 |
| mAb 158 (antibody, V domains shown) VH: EVQLLESGGDLIQPGGSLRLSCAASGVTVSSNYMSWVRQAPGKGLEWVSIIYPGGSTFYADSVKGRFTISRDNSKNTLYLQMHSLRAEDTAVYYCARDLGSGDMDVWGKGTTVTVSS VL: DIVMTQSPSFLSASVGDRVTITCRASQGISSYLAWYQQKPGKAPKLLIQAASTLQSGVPSRFSGSGSGTEFTLTISSLQPEDFATYYCQQLNSYRYTFGQGTKVEIK | ~0.5 | 0.034 |
| mAb 253H165L (antibody, V domains shown) VH: not shown VL: DIVMTQSPGTLSLSPGERATLSCRASQSVRSSYLAWYQQKPGQAPRLLIYGASRRGTGIPDRFSGSGSGTDFTLTISRLEPEDFAVYYCQQYGSSPWTFGQGTKVEIK | ~0.1 | 0.003 |
| mAb 40 (antibody, V domains shown) VH: QVQLVESGGGLVQPGGSLRLSCAVSGFTVSRNYMSWVRQAPGKGLEWVSLIYSGGSTFYADSVKGRFTISRDNSKNTLYLQMNSLRAEDTAVYYCARDLFHRSGYHDYWGQGTLVTVSS VL: not shown | ~0.3 | – |
